This passage reports Kd results from paper PMC8062265.

This test addresses Recombinant 1-158 a.a. domain of TMCC3 protein (human) (UniProt Q9ULS5). The experiment in a line: Luminex immunosandwich assay; cell-free; protein coupled onto Luminex beads, incubated with various concentrations of recombinant AKT, washed, detected with fluorescence labeled anti-AKT antibody (MFI, n = 4).
Chain of UniProt Q9ULS5 (Q9ULS5 1-158): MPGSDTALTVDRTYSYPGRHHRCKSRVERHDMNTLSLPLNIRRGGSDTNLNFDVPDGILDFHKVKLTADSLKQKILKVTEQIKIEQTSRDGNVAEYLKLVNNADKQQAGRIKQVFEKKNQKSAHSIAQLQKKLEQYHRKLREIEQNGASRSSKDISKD

As to “recombinant AKT (from UniProt P31749 1-480) (natural protein)”, the Kd amounted to 1.67 nM.

In general, Kd refers to the equilibrium constant for the complex coming apart.
